According to patent US20250161408A1, “PEPTIDIC INHIBITORS OF AMYLOID SELF- AND CROSS-ASSEMBLY” (TECHNISCHE UNIVERSITÄT MÜNCHEN, priority 2022, published 2025):

What was measured:
[1] = biological target: IAPP fibrils (fIAPP) (human) (UniProt P10997)
[2] = biological target: islet amyloid polypeptide (IAPP) (human) (UniProt P10997)
[3] = biological target: Aβ42 (Homo sapiens (Human)) (UniProt P05067)
[4] = biological target: Aβ42 fibrils (fAβ42) (Homo sapiens (Human)) (UniProt P05067)

proteinase K (PK) (from UniProt P06873) (enzyme)
proteinase K digestion followed by dot blot (anti-fIAPP antibody) [1]: > 30 h
proteinase K digestion of hf-IAPP/ACM followed by dot blot [2]: < 6 h
proteinase K digestion of hf-Aβ42/Nle3-VF followed by dot blot (6E10) [3]: 30 min
proteinase K digestion followed by dot blot (6E10) [4]: 2 h
